In PMC8967866:

Target: Cyanophora paradoxa photosystem I monomer2 (PSI-monomer unit lacking PsaK) (Cyanophora paradoxa (endogenous, strain NIES-547)) (UniProt P48112)
Assay: cryo-EM structure; PSI tetramer purified from Cyanophora thylakoids; GraFix (glutaraldehyde cross-linked) tetramer at 3.8 Å with C2 symmetry; unfixed wild-type tetramer at 4.0 Å; focused maps of monomer1 and monomer2 at 3.3 Å and 3.2 Å; 0.03% β-DDM, 50 mM Mes-NaOH pH 6.5

UniProt P48112, sequence (P48112 whole entry, looked up): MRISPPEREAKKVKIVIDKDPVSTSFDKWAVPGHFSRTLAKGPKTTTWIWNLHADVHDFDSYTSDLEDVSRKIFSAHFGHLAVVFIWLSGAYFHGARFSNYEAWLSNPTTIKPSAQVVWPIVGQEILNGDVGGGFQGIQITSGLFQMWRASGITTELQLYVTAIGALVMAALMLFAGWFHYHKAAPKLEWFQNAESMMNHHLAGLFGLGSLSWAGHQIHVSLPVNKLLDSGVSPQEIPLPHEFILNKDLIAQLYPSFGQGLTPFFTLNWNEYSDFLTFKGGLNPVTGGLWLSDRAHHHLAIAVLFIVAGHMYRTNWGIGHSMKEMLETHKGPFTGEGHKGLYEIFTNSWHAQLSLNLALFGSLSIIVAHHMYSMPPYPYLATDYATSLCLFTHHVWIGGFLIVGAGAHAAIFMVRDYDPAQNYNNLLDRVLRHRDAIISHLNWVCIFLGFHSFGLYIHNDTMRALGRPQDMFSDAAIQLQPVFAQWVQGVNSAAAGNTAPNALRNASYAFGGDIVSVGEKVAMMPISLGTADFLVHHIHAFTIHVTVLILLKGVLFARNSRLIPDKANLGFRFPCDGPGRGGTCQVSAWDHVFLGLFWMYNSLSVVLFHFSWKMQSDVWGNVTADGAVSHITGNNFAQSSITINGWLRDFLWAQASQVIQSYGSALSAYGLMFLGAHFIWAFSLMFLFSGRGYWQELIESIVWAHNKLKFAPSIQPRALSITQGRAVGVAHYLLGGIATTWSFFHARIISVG

Q: For “Cyanophora paradoxa photosystem I monomer1 (PSI-monomer unit with PsaK) (from UniProt P48112 1-752; P31173 1-81; Q9T4W8 54-220; P48114 1-70; P48115 26-186; P48116 1-35; P48117 1-40; P48185 1-31) (complex)”, which stoichiometry N (PSI-monomer units) is on record?
A: 4
